Reference: publication doi:10.1101/2020.12.18.423418

Target: SARS-CoV-2 S1 protein containing a C-terminal His-tag (Acro; S1N-C52H3) (SARS-CoV-2) (UniProt P0DTC2)
Assay: flow cytometry on cells

**Q.** With “recombinant fragment of human surfactant protein D (rfhSP-D) (from UniProt P35247 199-375) (domain or fragment)” as the substance, how does the percent reduction of S1 binding to ACE2 on cells at 10 μg/ml rfhSP-D read?
**A.** 35%
